The values below come from patent US20250051454A1 (DUKE UNIVERSITY, published 2025).

The chains are these.
B1: CA118 (antibody, V domains shown)
VH: EVQLVESGGGLVKPGGSLRLSCAASGFTFSSYSMNWVRQAPGKGLEWVSSISSSSSYIYYADSVKGRFTISRDNAKNSLYLQMNSLRAEDTAVYYCARGWQQLAYWDYWGQGTLVTVSS
VL: SYELTQPPSVSVAPGQTARITCGGNNIGSKSVHWYQQKPGQAPVLVVYDDSDRPSGIPERFSGSNSGNTATLTISRVEAGDEADYYCQVWDSSSDHYVFGTGTKVTVL
B2: CA141 (antibody, V domains shown)
VH: QVQLQESGGGLVKPGGSLRLSCAASGFTFSSYSMNWVRQAPGKGLEWVSSISSSSSYIYYADSVKGRFTISRDNAKNSLYLQMNSLRAEDTAVYYCARASENGDDAFDIWGQGTMVTVSS
VL: EIVLTQSPATLSLSPGERATLSCRASQSVSSYLAWYQQKPGQAPRLLIYDASNRATGIPARFSGSGSGTDFTLTISSLEPEDFAVYYCQQRSNWPPYTFGQGTKLEIK
B3: CA143 (human antibody on a human IgG1 backbone) (antibody, V domains shown)
VH: B2 VH with Q5V, E6Q, A99D, E101L, N102P, G103A, D104G, A106Y, I109Y, M115L
VL: DIQLTQSPSFLSASVGDRVTITCRASQGISSYLAWYQQKPGKAPKLLIYAASTLQSGVPSRFSGSGSGTEFTLTISSLQPEDFATYYCQQLNSYPQTTFGGGTKVEIK
B4: CA128 (antibody, V domains shown)
VH: QVQLVQSGGGLVKPGGSLRLSCAASGFTFSDYYMSWIRQAPGKGLEWVSYISSSGSTIYYADSVKGRFTISRDNAKNSLYLQMNSLRAEDTAVYYCARDSGSFVGVFDYWGQGTLVTVSS
VL: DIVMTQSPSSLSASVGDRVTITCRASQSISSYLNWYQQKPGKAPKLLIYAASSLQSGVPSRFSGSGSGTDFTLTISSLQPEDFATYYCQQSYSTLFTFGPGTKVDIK
B5: CA145 (antibody, V domains shown)
VH: B4 VH with Q1E, Q6E, S100V, G101L, S102E, F103L, V104R, G105W, V106W, Y109P
VL: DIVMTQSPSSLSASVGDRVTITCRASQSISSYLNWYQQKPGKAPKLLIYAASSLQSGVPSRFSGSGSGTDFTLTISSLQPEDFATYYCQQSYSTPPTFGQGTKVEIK
B6: CA124 (antibody, V domains shown)
VH: EVQLVQSGGGLVKPGGSLRLSCAASGFTFSDYYMSWIRQAPGKGLEWVSYISSSGSTIYYADSVKGRFTISRDNAKNSLYLQMNSLRAEDTAVYYCASGFSSWGADDYWGQGTLVTVSS
VL: DIVMTQSPSSLSASVGDRVTITCRASQGISNYLAWFQQKPGKAPKSLIYAASSLQSGVPSKFSGSGSGTDFTLTISSLQPEDFATYYCQQYNSYPLTFGQGTKLEIK
B7: CA139 (antibody, V domains shown)
VH: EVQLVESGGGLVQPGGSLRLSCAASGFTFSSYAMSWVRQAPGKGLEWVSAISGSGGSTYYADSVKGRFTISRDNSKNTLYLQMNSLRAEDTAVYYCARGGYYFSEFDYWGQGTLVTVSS
VL: B6 VL with Q100G, L104V
B8: CA146 (antibody, V domains shown)
VH: EVQLVQSGGGVVQPGRSLRLSCAASGFTFSSYGMHWVRQAPGKGLEWVAVISYDGSNKYYADSVKGRFTISRDNSKNTLYLQMNSLRAEDTAVYYCAKDRYSIVGATSNGMDVWGQGTTVTVSS
VL: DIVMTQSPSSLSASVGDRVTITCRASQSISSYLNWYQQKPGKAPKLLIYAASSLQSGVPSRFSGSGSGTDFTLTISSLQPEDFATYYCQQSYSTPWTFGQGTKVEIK
B9: CA144 (antibody, V domains shown)
VH: QVQLVQSGGGLVKPGGSLRLSCAASGFTFSSYSMNWVRQAPGKGLEWVSSISSSSSYIYYADSVKGRFTISRDNAKNSLYLQMNSLRAEDTAVYYCARDRVEMAFHFDYWGQGTLVTVSS
VL: not shown
B10: CA149 (antibody, V domains shown)
VH: EVQLVESGGGLVKPGGSLRLSCAASGFTFSSYSMNWVRQAPGKGLEWVSSISSSSSYIYYADSVKGRFTISRDNAKNSLYLQMNSLRAEDTAVYYCARCAAGFVPDAFDIWGQGTMVTVSS
VL: not shown
B11: CA171 (antibody, V domains shown)
VH: B10 VH with K13Q, S50Y, Y57T, C99T, A100F, A101Y, G102S, F103N, V104Y, P105L
VL: EIVLTQSPDTLSMCPGERATLSCRASQSVSSYLAWYQQKPGQAPRLLIYDASNRATGIPARFSGSGSGTDFTLTISSLEPEDFAVYYCQQRSNWLSMYTFGQGTKLEIK
B12: CA125 (antibody, V domains shown)
VH: B10 VH with C99V, A100V, A101D, G102T, F103A, V104M, P105G
VL: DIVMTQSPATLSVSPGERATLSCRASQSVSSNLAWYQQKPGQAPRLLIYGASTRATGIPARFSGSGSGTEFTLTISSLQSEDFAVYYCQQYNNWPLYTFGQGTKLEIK
B13: CA134 (antibody, V domains shown)
VH: EVQLVESGGGLVKPGGSLRLSCAASGFTFSSYSMNWVRQAPGKGLEWVSSISSSSSYIYYADSVKGRFTISRDNAKNSLYLQMNSLRAEDTAVYYCARVFGEQLVSFFDYWGQGTLVTVSS
VL: not shown
B14: CA150 (antibody, V domains shown)
VH: QVQLVQSGAEVKKPGSSVKVSCKASGGTFSSYAISWVRQAPGQGLEWMGGIIPIFGTANYAQKFQGRVTITADESTSTAYMELSSLRSEDTAVYYCASFPNCSSTSCYYYYYMDVWGKGTTVTVSS
VL: QSALTQPASVSGSPGQSITISCTGTSSDVGGYNYVSWYQQHPGKAPKLMIYDVSNRPSGVSNRFSGSKSGNTASLTISGLQAEDEADYYCSSYTSSSTRDVVFGGGTKLTVL
B15: CA151 (antibody, V domains shown)
VH: QVQLQESGPGLVKPSETLSLTCTVSGGSVSSGSYYWSWIRQPPGKGLEWIGYIYYSGSTNYNPSLKSRVTISVDTSKNQFSLKLSSVTAADTAVYYCASFTRMSPYAFDIWGQGTMVTVSS
VL: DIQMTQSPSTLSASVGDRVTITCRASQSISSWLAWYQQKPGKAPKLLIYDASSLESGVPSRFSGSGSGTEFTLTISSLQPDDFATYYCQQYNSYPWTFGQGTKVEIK
B16: CA157 (antibody, V domains shown)
VH: EVQLVESGGGLVQPGGSLRLSCAASGFTFSSYEMNWVRQAPGKGLEWVSYISSSGSTIYYADSVKGRFTISRDNAKNSLYLQMNSLRAEDTAVYYCARGYCSSTSCPFDYWGQGTLVTVSS
VL: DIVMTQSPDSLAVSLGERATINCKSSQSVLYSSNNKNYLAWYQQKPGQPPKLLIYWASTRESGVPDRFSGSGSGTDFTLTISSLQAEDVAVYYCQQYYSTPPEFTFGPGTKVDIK
B17: CA152 (antibody, V domains shown)
VH: QVQLVQSGAEVKKPGSSVKVSCKASGGTFSSYAISWVRQAPGQGLEWMGGIIPIFGTANYAQKFQGRVTITADESTSTAYMELSSLRSEDTAVYYCARGQWSPGGYGMDVWGQGTTVTVSS
VL: not shown
B18: CA156 (antibody, V domains shown)
VH: B13 VH with V99D, G101S, E102G, Q103D, L104F, V105W, F107G, F108Y
VL: not shown
B19: CA154 (antibody, V domains shown)
VH: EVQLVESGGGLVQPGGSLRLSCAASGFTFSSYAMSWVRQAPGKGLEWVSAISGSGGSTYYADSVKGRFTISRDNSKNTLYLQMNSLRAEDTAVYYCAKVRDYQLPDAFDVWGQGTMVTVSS
VL: AIRMTQSPSSFSASTGDRVTITCRASQGISSYLAWYQQKPGKAPKLLIYAASTLQSGVPSRFSGSGSGTDFTLTISCLQSEDFATYYCQQYYSYALTFGGGTKVEIK
B20: CA153 (antibody, V domains shown)
VH: EVQLVESGGGLVKPGGSLRLSCAASGFTFSSYSMNWVRQAPGKGLEWVSSISSSSSYIYYADSVKGRFTISRDNAKNSLYLQMNSLRAEDTAVYYCARLTYYYYMDVWGKGTTVTVSS
VL: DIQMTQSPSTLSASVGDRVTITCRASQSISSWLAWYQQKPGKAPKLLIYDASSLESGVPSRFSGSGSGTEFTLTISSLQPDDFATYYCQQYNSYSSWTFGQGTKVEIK
B21: CA158 (antibody, V domains shown)
VH: B20 VH with L99M, T100Y, Y101Q, Y102L, Y103A, Y104A, M105I, V107Y, K110Q, T113L
VL: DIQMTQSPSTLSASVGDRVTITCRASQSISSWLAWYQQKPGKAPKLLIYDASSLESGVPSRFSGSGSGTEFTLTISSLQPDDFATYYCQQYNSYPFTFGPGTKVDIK
B22: CA131 (antibody, V domains shown)
VH: QVQLQESGSGLVKPSQTLSLTCAVSGGSISSGGYSWSWIRQPPGKGLEWIGYIYHSGSTYYNPSLKSRVTISVDRSKNQFSLKLSSVTAADTAVYYCATGGGHKELGGWGPRGTLVTVSS
VL: not shown
B23: CA148 (antibody, V domains shown)
VH: QVQLVQSGAEVKKPGASVKVSCKASGYTFTSYGISWVRQAPGQGLEWMGWISAYNGNTNYAQKLQGRVTMTTDTSTSTAYMELRSLRSDDTAVYYCARTPGDEYYYYYYMDVWGKGTTVTVSS
VL: EIVLTQSPATLSLSPGERATLSCRASQSVSSYLAWYQQKPGQAPRLLIYDASNRATGIPARFSGSGSGTDFTLTISSLEPEDFAVYYCQQRSNWPRTFGQGTKLEIK

Where a chain is given by its changes, count along the chain named.

In one assay the target is T1, HLA-E-RL9HIV single chain trimer on transfected 293T cells (human, UniProt P61769 21-119; P13747 22-358).
T1 construct: also called control HLA-E-peptide complex
As to the kind of experiment: flow cytometry, SCT-transfected 293T cells, MFI bar chart [E]. In general terms: Flow cytometry measures light scatter and fluorescence of single cells or particles in a stream.
Consider B1, for which the binding result is “no binding (tested: 2 µg/ml)”.
With B2, the binding result is given as “no binding (tested: 2 µg/ml)”.
The same measure, in the same setting: the value for B3 was “no binding (tested: 2 µg/ml)”; that for B4 was “no binding (tested: 2 µg/ml)”; that for B5 was “no binding (tested: 2 µg/ml)”.
Same read-out and setting: with B6 the entry was “no binding (tested: 2 µg/ml)”.
With B7, the binding result is given as “no binding (tested: 2 µg/ml)”.
For B8, the binding result is given as “no binding (tested: 2 µg/ml)”.
On the same count and under the same terms, the value for B9 was “no binding (tested: 2 µg/ml)”; that for B10 was “no binding (tested: 2 µg/ml)”.
On the same count and under the same terms, the value for B11 was “no binding (tested: 2 µg/ml)”; that for B12 was “no binding (tested: 2 µg/ml)”.
On the same count and under the same terms, the value for B13 was “no binding (tested: 2 µg/ml)”.
With B14, the binding result is reported as “no binding (tested: 2 µg/ml)”.
Still for that read-out and setting: the value for B15 was “no binding (tested: 2 µg/ml)”; that for B16 was “no binding (tested: 2 µg/ml)”.
Same read-out and setting: with B17 the entry was “no binding (tested: 2 µg/ml)”; with B18, “no binding (tested: 2 µg/ml)”.
Same read-out and setting: with B19 the entry was “no binding (tested: 2 µg/ml)”; with B20, “no binding (tested: 2 µg/ml)”; with B21, “no binding (tested: 2 µg/ml)”.
B22: the binding result is on record as “no binding (tested: 2 µg/ml)”.
On the same count and under the same terms, the value for B23 was “no binding (tested: 2 µg/ml)”.

The next assay has as its target T2, HLA-E-RL9SIV single chain trimer on transfected 293T cells (human, UniProt P61769 21-119; P13747 22-358).
T2 construct: also called control HLA-E-peptide complex
Described as above.
On to B1, for which the binding result was “no binding (tested: 2 µg/ml)”.
In the case of B2, the binding result is listed as “no binding (tested: 2 µg/ml)”.
Still for that read-out and setting: with B3 the entry was “no binding (tested: 2 µg/ml)”; with B4, “no binding (tested: 2 µg/ml)”; with B5, “no binding (tested: 2 µg/ml)”.
Same read-out and setting: the value for B6 was “no binding (tested: 2 µg/ml)”.
Regarding B7, the binding result is listed as “no binding (tested: 2 µg/ml)”.
With B8, the binding result is “no binding (tested: 2 µg/ml)”.
Take B9: the binding result is listed as “no binding (tested: 2 µg/ml)”.
Same read-out and setting: the value for B10 was “no binding (tested: 2 µg/ml)”.
Consider B12, for which the binding result is given as “no binding (tested: 2 µg/ml)”.
In the case of B13, the binding result is “no binding (tested: 2 µg/ml)”.
Same read-out and setting: the value for B14 was “no binding (tested: 2 µg/ml)”; that for B15 was “no binding (tested: 2 µg/ml)”.
On the same count and under the same terms, the value for B16 was “no binding (tested: 2 µg/ml)”; that for B17 was “no binding (tested: 2 µg/ml)”.
The same measure, in the same setting: the value for B18 was “no binding (tested: 2 µg/ml)”.
Take B19: the binding result was “no binding (tested: 2 µg/ml)”.
The same measure, in the same setting: the value for B20 was “no binding (tested: 2 µg/ml)”; that for B21 was “no binding (tested: 2 µg/ml)”; that for B22 was “no binding (tested: 2 µg/ml)”.
As for B23, the binding result is reported as “no binding (tested: 2 µg/ml)”.
